# Reference: article PMC3172050, “Structural and functional properties of NH2-terminal domain, core domain, and COOH-terminal extension of αA- and αB-crystallins” (Molecular Vision, 2011)
# B1: wild type αB-crystallin (natural protein, human, UniProt P02511 1-175, looked up)
# chain: MDIAIHHPWIRRPFFPFHSPSRLFDQFFGEHLLESDLFPTSTSLSPFYLRPPSFLRAPSWFDTGLSEMRLEKDRFSVNLDVKHFSPEELKVKVLGDVIEVHGKHEERQDEHGFISREFHRKYRIPADVDPLTITSSLSSDGVLTVNGPRKQVSGPERTIPITREEKPAVTAAPKK
# notes: human αB-crystallin, wild type; Subcloned into pET 100D TOPO; the vector may add further N-terminal residues besides the His-tag; also called WT αB; not shown: His6, N-terminal, kept
# B2: αB-crystallin NH2-terminal domain (residues 1-66) (domain or fragment, human, UniProt P02511 1-66, looked up)
# chain: MDIAIHHPWIRRPFFPFHSPSRLFDQFFGEHLLESDLFPTSTSLSPFYLRPPSFLRAPSWFDTGLS
# notes: human αB-crystallin, NH2-terminal domain, residues 1-66; The pET 100D TOPO vector may add further N-terminal residues besides the His-tag; also called αB NTD; not shown: His6, N-terminal, kept
# B3: αB-crystallin core domain (residues 67-146) (domain or fragment, human, UniProt P02511 67-146, looked up)
# chain: EMRLEKDRFSVNLDVKHFSPEELKVKVLGDVIEVHGKHEERQDEHGFISREFHRKYRIPADVDPLTITSSLSSDGVLTVN
# notes: human αB-crystallin, core domain, residues 67-146; The pET 100D TOPO vector may add further N-terminal residues besides the His-tag; also called αB CD; not shown: His6, N-terminal, kept
# Key:
# [1] = target: the molecule itself; experiment: SDS-PAGE with western blot (anti-His tag antibody); purified His-tagged WT αB on an SDS-PAGE gel; 50 kDa band beside the monomer, both immunoreactive with the anti-His antibody
# [2] = target: the molecule itself; experiment: SEC-MALS; multiangle laser light scattering instrument (Wyatt) coupled to an HPLC system, called dynamic light scattering (MALS) by the paper; samples in 50 mM sodium phosphate pH 7.8, filtered through 0.22 um; 18 angles; absolute molar mass of each protein alone
Protein,stoichiometry N [1],binding result [2]
B1,2,–
B2,–,binds
B3,–,binds
